According to article PMC9482650, “Quantitative fragmentomics allow affinity mapping of interactomes” (Nature Communications, 2022):

T1: DFNB31_2, Q9P202
T1 sequence (Q9P202 274-371, limits assumed, looked up): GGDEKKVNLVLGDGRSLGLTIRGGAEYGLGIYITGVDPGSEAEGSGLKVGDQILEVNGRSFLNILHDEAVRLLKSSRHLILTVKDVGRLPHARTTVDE

T2: ARHGAP21, Q5T5U3
T2 sequence (Q5T5U3 45-169, limits assumed, looked up): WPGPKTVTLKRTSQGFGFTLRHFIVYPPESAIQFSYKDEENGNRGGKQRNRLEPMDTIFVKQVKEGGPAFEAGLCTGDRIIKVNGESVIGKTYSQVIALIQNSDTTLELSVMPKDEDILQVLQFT

T3: GRIP1_3, Q9Y3R0
T3 sequence (Q9Y3R0 247-346, limits assumed, looked up): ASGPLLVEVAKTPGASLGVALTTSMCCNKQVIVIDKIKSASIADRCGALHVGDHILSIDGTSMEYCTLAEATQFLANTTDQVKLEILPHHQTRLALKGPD

T4: MPP7, Q5T2T1
T4 sequence (Q5T2T1 134-230, limits assumed, looked up): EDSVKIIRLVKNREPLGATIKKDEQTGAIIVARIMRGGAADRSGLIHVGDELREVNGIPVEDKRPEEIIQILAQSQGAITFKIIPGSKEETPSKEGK

T5: LIN7B, Q9HAP6
T5 sequence (Q9HAP6 88-185, limits assumed, looked up): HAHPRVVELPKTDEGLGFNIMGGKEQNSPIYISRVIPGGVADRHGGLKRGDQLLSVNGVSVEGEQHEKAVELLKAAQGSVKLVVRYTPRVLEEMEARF

T6: PDZRN3_1, Q9UPQ7
T6 sequence (Q9UPQ7 244-349, limits assumed, looked up): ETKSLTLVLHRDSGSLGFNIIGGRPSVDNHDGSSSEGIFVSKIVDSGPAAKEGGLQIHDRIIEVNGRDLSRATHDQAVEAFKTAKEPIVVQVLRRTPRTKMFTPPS

T7: SNTG1, Q9NSN8
T7 sequence (Q9NSN8 52-150, limits assumed, looked up): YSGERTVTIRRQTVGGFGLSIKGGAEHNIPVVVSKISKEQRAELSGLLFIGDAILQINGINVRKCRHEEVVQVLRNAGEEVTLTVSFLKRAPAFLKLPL

T8: SYNJ2BP, P57105
T8 sequence (P57105 8-110, limits assumed, looked up): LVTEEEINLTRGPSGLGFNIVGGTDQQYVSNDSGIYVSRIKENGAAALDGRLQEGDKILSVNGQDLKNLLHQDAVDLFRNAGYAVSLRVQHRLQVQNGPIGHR

T9: NHERF3_1, Q5T2W1
T9 sequence (Q5T2W1 4-100, limits assumed, looked up): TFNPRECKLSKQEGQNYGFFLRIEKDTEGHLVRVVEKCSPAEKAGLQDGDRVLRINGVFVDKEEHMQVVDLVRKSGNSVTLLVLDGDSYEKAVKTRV

T10: HTRA4, P83105
T10 sequence (P83105 378-476, limits assumed, looked up): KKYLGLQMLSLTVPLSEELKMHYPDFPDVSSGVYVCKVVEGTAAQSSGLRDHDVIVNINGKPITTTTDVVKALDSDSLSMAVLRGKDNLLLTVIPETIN

T11: DLG3_2, Q92796
T11 sequence (Q92796 221-321, limits assumed, looked up): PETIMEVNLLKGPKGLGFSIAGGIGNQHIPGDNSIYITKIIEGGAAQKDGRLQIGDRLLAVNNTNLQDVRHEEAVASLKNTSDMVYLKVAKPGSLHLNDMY

T12: MPP6, Q9NZW5
T12 sequence (Q9NZW5 125-219, limits assumed, looked up): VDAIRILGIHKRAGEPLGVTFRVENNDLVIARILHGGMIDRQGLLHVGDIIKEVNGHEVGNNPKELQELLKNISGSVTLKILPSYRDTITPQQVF


molecular target: GRIP2_5, Q9C0E4; test: holdup assay; parameters: key: below the threshold = too weak to quantify, mostly under pKd 3.1 to 4; conditions: plain residues with an end cap or a label only (N-terminal biotin on a linker: ado-ado)
Sequence (Q9C0E4 544-642): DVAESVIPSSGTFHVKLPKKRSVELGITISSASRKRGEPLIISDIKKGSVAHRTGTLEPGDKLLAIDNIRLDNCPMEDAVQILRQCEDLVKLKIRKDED

pKd	Binder
below the threshold	DFRHKSSFVI [JAM3, Q9BX67]
below the threshold	RTQSSDSAYV [GJD2, Q9UKL4]
below the threshold	GQETPLNTFC [MAP7D2, Q96T17]

molecular target: T1, DFNB31_2, Q9P202; test: holdup assay; parameters: key: below the threshold = too weak to quantify, mostly under pKd 3.1 to 4; conditions: plain residues with an end cap or a label only (N-terminal biotin on a linker: ado-ado)

pKd	Binder
below the threshold	DFRHKSSFVI [JAM3, Q9BX67]
below the threshold	RTQSSDSAYV [GJD2, Q9UKL4]
below the threshold	GQETPLNTFC [MAP7D2, Q96T17]

molecular target: T2, ARHGAP21, Q5T5U3; test: holdup assay; parameters: key: below the threshold = too weak to quantify, mostly under pKd 3.1 to 4; conditions: plain residues with an end cap or a label only (N-terminal biotin on a linker: ado-ado)

pKd	Binder
below the threshold	DFRHKSSFVI [JAM3, Q9BX67]
3.62	RTQSSDSAYV [GJD2, Q9UKL4]
below the threshold	GQETPLNTFC [MAP7D2, Q96T17]

molecular target: T3, GRIP1_3, Q9Y3R0; test: holdup assay; parameters: key: below the threshold = too weak to quantify, mostly under pKd 3.1 to 4; conditions: plain residues with an end cap or a label only (N-terminal biotin on a linker: ado-ado)

pKd	Binder
below the threshold	DFRHKSSFVI [JAM3, Q9BX67]
below the threshold	RTQSSDSAYV [GJD2, Q9UKL4]
below the threshold	GQETPLNTFC [MAP7D2, Q96T17]

molecular target: T4, MPP7, Q5T2T1; test: holdup assay; parameters: key: below the threshold = too weak to quantify, mostly under pKd 3.1 to 4; conditions: plain residues with an end cap or a label only (N-terminal biotin on a linker: ado-ado)

pKd	Binder
3.79	DFRHKSSFVI [JAM3, Q9BX67]
below the threshold	RTQSSDSAYV [GJD2, Q9UKL4]
below the threshold	GQETPLNTFC [MAP7D2, Q96T17]

molecular target: T5, LIN7B, Q9HAP6; test: holdup assay; parameters: key: below the threshold = too weak to quantify, mostly under pKd 3.1 to 4; conditions: plain residues with an end cap or a label only (N-terminal biotin on a linker: ado-ado)

pKd	Binder
3.82	DFRHKSSFVI [JAM3, Q9BX67]
below the threshold	RTQSSDSAYV [GJD2, Q9UKL4]
3.81	GQETPLNTFC [MAP7D2, Q96T17]

molecular target: T6, PDZRN3_1, Q9UPQ7; test: holdup assay; parameters: key: below the threshold = too weak to quantify, mostly under pKd 3.1 to 4; conditions: plain residues with an end cap or a label only (N-terminal biotin on a linker: ado-ado)

pKd	Binder
below the threshold	DFRHKSSFVI [JAM3, Q9BX67]
below the threshold	RTQSSDSAYV [GJD2, Q9UKL4]
below the threshold	GQETPLNTFC [MAP7D2, Q96T17]

molecular target: Inadl_2, Q8NI35; test: holdup assay; parameters: key: below the threshold = too weak to quantify, mostly under pKd 3.1 to 4; conditions: plain residues with an end cap or a label only (N-terminal biotin on a linker: ado-ado)
Sequence (Q8NI35 238-335): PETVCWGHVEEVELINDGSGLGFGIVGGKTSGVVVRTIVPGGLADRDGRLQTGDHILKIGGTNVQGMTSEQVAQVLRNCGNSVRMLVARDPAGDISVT

pKd	Binder
below the threshold	DFRHKSSFVI [JAM3, Q9BX67]
below the threshold	RTQSSDSAYV [GJD2, Q9UKL4]
below the threshold	GQETPLNTFC [MAP7D2, Q96T17]

molecular target: PICK1, Q9NRD5; test: holdup assay; parameters: key: below the threshold = too weak to quantify, mostly under pKd 3.1 to 4; conditions: plain residues with an end cap or a label only (N-terminal biotin on a linker: ado-ado)
Sequence (Q9NRD5 17-115): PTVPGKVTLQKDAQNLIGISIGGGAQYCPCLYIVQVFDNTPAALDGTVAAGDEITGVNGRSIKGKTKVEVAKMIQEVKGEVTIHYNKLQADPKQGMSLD

pKd	Binder
below the threshold	DFRHKSSFVI [JAM3, Q9BX67]
below the threshold	RTQSSDSAYV [GJD2, Q9UKL4]
below the threshold	GQETPLNTFC [MAP7D2, Q96T17]

molecular target: LDB3, O75112; test: holdup assay; parameters: key: below the threshold = too weak to quantify, mostly under pKd 3.1 to 4; conditions: plain residues with an end cap or a label only (N-terminal biotin on a linker: ado-ado)
Sequence (O75112 1-94): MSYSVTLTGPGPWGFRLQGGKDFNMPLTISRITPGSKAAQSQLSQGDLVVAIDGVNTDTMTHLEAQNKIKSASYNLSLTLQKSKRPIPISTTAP

pKd	Binder
3.76	DFRHKSSFVI [JAM3, Q9BX67]
below the threshold	RTQSSDSAYV [GJD2, Q9UKL4]
below the threshold	GQETPLNTFC [MAP7D2, Q96T17]

molecular target: MAGI1_2, Q96QZ7; test: holdup assay; parameters: key: below the threshold = too weak to quantify, mostly under pKd 3.1 to 4; conditions: plain residues with an end cap or a label only (N-terminal biotin on a linker: ado-ado)
Sequence (Q96QZ7 456-580): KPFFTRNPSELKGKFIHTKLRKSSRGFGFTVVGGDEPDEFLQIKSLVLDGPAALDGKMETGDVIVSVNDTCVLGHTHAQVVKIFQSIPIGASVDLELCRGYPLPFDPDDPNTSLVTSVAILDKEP

pKd	Binder
below the threshold	DFRHKSSFVI [JAM3, Q9BX67]
below the threshold	RTQSSDSAYV [GJD2, Q9UKL4]
below the threshold	GQETPLNTFC [MAP7D2, Q96T17]

molecular target: Inadl_10, Q8NI35; test: holdup assay; parameters: key: below the threshold = too weak to quantify, mostly under pKd 3.1 to 4; conditions: plain residues with an end cap or a label only (N-terminal biotin on a linker: ado-ado)
Sequence (Q8NI35 1673-1763): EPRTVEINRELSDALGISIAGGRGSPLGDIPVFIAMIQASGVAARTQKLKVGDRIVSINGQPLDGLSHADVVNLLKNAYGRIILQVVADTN

pKd	Binder
below the threshold	DFRHKSSFVI [JAM3, Q9BX67]
below the threshold	RTQSSDSAYV [GJD2, Q9UKL4]
below the threshold	GQETPLNTFC [MAP7D2, Q96T17]

molecular target: Inadl_6, Q8NI35; test: holdup assay; parameters: key: below the threshold = too weak to quantify, mostly under pKd 3.1 to 4; conditions: plain residues with an end cap or a label only (N-terminal biotin on a linker: ado-ado)
Sequence (Q8NI35 1058-1167): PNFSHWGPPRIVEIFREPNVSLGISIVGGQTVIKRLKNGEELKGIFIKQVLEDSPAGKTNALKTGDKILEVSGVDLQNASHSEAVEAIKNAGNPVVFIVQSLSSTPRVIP

pKd	Binder
below the threshold	DFRHKSSFVI [JAM3, Q9BX67]
below the threshold	RTQSSDSAYV [GJD2, Q9UKL4]
below the threshold	GQETPLNTFC [MAP7D2, Q96T17]

molecular target: MAGI2_5, Q86UL8; test: holdup assay; parameters: key: below the threshold = too weak to quantify, mostly under pKd 3.1 to 4; conditions: plain residues with an end cap or a label only (N-terminal biotin on a linker: ado-ado)
Sequence (Q86UL8 915-1017): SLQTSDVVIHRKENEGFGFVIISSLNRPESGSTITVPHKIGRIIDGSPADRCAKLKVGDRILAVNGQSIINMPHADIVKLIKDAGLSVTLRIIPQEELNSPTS

pKd	Binder
below the threshold	DFRHKSSFVI [JAM3, Q9BX67]
below the threshold	RTQSSDSAYV [GJD2, Q9UKL4]
below the threshold	GQETPLNTFC [MAP7D2, Q96T17]

molecular target: T7, SNTG1, Q9NSN8; test: holdup assay; parameters: key: below the threshold = too weak to quantify, mostly under pKd 3.1 to 4; conditions: plain residues with an end cap or a label only (N-terminal biotin on a linker: ado-ado)

pKd	Binder
below the threshold	DFRHKSSFVI [JAM3, Q9BX67]
below the threshold	RTQSSDSAYV [GJD2, Q9UKL4]
below the threshold	GQETPLNTFC [MAP7D2, Q96T17]

molecular target: GRIP2_7, Q9C0E4; test: holdup assay; parameters: key: below the threshold = too weak to quantify, mostly under pKd 3.1 to 4; conditions: plain residues with an end cap or a label only (N-terminal biotin on a linker: ado-ado)
Sequence (Q9C0E4 934-1023): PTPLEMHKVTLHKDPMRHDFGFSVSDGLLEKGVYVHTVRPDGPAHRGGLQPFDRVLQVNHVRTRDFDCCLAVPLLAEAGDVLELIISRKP

pKd	Binder
below the threshold	DFRHKSSFVI [JAM3, Q9BX67]
below the threshold	RTQSSDSAYV [GJD2, Q9UKL4]
below the threshold	GQETPLNTFC [MAP7D2, Q96T17]

molecular target: T8, SYNJ2BP, P57105; test: holdup assay; parameters: key: below the threshold = too weak to quantify, mostly under pKd 3.1 to 4; conditions: plain residues with an end cap or a label only (N-terminal biotin on a linker: ado-ado)

pKd	Binder
below the threshold	DFRHKSSFVI [JAM3, Q9BX67]
3.66	RTQSSDSAYV [GJD2, Q9UKL4]
below the threshold	GQETPLNTFC [MAP7D2, Q96T17]

molecular target: T9, NHERF3_1, Q5T2W1; test: holdup assay; parameters: key: below the threshold = too weak to quantify, mostly under pKd 3.1 to 4; conditions: plain residues with an end cap or a label only (N-terminal biotin on a linker: ado-ado)

pKd	Binder
below the threshold	DFRHKSSFVI [JAM3, Q9BX67]
4.95	RTQSSDSAYV [GJD2, Q9UKL4]
4.26	GQETPLNTFC [MAP7D2, Q96T17]

molecular target: MAGI3_2, Q5TCQ9; test: holdup assay; parameters: key: below the threshold = too weak to quantify, mostly under pKd 3.1 to 4; conditions: plain residues with an end cap or a label only (N-terminal biotin on a linker: ado-ado)
Sequence (Q5TCQ9 398-503): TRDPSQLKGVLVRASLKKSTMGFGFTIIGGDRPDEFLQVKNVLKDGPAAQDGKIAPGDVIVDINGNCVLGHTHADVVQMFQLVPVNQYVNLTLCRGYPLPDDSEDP

pKd	Binder
below the threshold	DFRHKSSFVI [JAM3, Q9BX67]
below the threshold	RTQSSDSAYV [GJD2, Q9UKL4]
below the threshold	GQETPLNTFC [MAP7D2, Q96T17]

molecular target: T10, HTRA4, P83105; test: holdup assay; parameters: key: below the threshold = too weak to quantify, mostly under pKd 3.1 to 4; conditions: plain residues with an end cap or a label only (N-terminal biotin on a linker: ado-ado)

pKd	Binder
below the threshold	DFRHKSSFVI [JAM3, Q9BX67]
below the threshold	RTQSSDSAYV [GJD2, Q9UKL4]
below the threshold	GQETPLNTFC [MAP7D2, Q96T17]

molecular target: FRMPD2_3, Q68DX3; test: holdup assay; parameters: key: below the threshold = too weak to quantify, mostly under pKd 3.1 to 4; conditions: plain residues with an end cap or a label only (N-terminal biotin on a linker: ado-ado)
Sequence (Q68DX3 1073-1166): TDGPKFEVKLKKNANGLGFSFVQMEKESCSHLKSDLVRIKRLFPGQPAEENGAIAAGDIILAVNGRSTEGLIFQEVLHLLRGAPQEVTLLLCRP

pKd	Binder
below the threshold	DFRHKSSFVI [JAM3, Q9BX67]
3.71	RTQSSDSAYV [GJD2, Q9UKL4]
below the threshold	GQETPLNTFC [MAP7D2, Q96T17]

molecular target: T11, DLG3_2, Q92796; test: holdup assay; parameters: key: below the threshold = too weak to quantify, mostly under pKd 3.1 to 4; conditions: plain residues with an end cap or a label only (N-terminal biotin on a linker: ado-ado)

pKd	Binder
4.16	DFRHKSSFVI [JAM3, Q9BX67]
below the threshold	RTQSSDSAYV [GJD2, Q9UKL4]
3.93	GQETPLNTFC [MAP7D2, Q96T17]

molecular target: T12, MPP6, Q9NZW5; test: holdup assay; parameters: key: below the threshold = too weak to quantify, mostly under pKd 3.1 to 4; conditions: plain residues with an end cap or a label only (N-terminal biotin on a linker: ado-ado)

pKd	Binder
3.62	DFRHKSSFVI [JAM3, Q9BX67]
below the threshold	RTQSSDSAYV [GJD2, Q9UKL4]
3.62	GQETPLNTFC [MAP7D2, Q96T17]

molecular target: GIPC2, Q8TF65; test: holdup assay; parameters: key: below the threshold = too weak to quantify, mostly under pKd 3.1 to 4; conditions: plain residues with an end cap or a label only (N-terminal biotin on a linker: ado-ado)
Sequence (Q8TF65 112-203): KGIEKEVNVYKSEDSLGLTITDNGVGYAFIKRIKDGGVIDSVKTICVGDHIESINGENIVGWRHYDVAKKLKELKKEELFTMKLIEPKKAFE

pKd	Binder
below the threshold	DFRHKSSFVI [JAM3, Q9BX67]
below the threshold	RTQSSDSAYV [GJD2, Q9UKL4]
below the threshold	GQETPLNTFC [MAP7D2, Q96T17]
